Substitutions are numbered along the chain they refer to. Where no end group is shown, it is not given here.

The Kd is a measure of binding affinity in units of concentration. As usually defined, the koff is the first-order rate constant of dissociation. A word on the kon: it is the rate constant with which the complex forms. A lower kon goes with slower complex formation.

For assay [1], the target named is T1, rat MASP-2cf CCP1-CCP2-SP (rat, UniProt Q9JJS8 298-685).
T1 construct: range 298-685; Mw 42309 Da; also called rat MASP-2 catalytic fragment
Briefly: SPR, target immobilised. (In general: Surface plasmon resonance follows binding to a sensor surface in real time, without labels.)

The target of assay [2] is T2, human MASP-2cf CCP1-CCP2-SP (human, UniProt O00187 298-686, limits assumed).
T2 construct: domain: CCP1-CCP2-SP; also called human MASP-2 catalytic fragment
Briefly: SPR, target immobilised.

Assay [3] concerns the target T3, human MASP-2 (in normal human serum) (human, UniProt O00187 16-686). Briefly: cell-based or functional assay.
The target of assay [4] is rat MASP-2 (in rat serum) (rat, UniProt Q9JJS8 20-685). Briefly: cell-based or functional assay.
Assay [5] has as its target T3, human MASP-2 (in normal human serum). In words: cell-based or functional assay. The source holds these as a separate data set.

T1 sequence (Q9JJS8 other isoform, or with tags, fused parts or gaps limits assumed, form in doubt): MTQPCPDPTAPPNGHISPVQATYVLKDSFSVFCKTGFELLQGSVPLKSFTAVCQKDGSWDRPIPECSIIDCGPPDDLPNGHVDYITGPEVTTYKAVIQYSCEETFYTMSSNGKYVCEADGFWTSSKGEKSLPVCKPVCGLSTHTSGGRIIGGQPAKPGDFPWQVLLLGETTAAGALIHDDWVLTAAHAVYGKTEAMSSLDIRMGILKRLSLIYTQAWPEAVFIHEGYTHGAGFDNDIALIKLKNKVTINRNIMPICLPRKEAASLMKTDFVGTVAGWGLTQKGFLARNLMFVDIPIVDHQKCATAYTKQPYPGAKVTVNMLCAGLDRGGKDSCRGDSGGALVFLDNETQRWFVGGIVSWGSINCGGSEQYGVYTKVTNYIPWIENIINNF
T2 sequence (O00187 298-686 limits assumed): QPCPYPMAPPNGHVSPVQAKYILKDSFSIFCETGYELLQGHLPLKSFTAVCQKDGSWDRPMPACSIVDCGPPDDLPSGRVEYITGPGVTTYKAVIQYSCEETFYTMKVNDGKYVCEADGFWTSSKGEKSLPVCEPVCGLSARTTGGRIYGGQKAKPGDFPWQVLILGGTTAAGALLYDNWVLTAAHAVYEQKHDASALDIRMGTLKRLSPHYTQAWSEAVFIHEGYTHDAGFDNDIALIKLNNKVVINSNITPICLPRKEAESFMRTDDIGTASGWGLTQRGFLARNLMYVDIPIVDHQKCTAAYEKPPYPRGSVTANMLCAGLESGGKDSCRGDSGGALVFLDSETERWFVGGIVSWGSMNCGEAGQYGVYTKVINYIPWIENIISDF
T3 sequence (O00187 16-686 limits assumed): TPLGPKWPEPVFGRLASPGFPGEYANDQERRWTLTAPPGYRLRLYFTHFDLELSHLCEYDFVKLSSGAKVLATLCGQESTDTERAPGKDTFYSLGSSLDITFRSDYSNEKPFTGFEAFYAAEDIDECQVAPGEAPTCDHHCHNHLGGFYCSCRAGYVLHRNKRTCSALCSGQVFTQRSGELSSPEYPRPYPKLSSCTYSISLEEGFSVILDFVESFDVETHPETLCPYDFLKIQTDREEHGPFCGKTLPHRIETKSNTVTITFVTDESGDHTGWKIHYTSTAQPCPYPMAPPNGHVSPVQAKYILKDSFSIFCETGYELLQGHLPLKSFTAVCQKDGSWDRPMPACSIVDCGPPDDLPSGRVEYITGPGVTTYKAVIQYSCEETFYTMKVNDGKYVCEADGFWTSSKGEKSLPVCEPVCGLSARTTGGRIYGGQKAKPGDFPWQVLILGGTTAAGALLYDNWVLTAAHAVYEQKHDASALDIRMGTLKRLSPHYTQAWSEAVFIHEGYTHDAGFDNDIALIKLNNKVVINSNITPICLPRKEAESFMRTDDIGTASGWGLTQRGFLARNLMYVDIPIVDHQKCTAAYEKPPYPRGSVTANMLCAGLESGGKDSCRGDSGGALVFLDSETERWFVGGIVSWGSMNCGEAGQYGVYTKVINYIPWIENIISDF
Chain of rat MASP-2 (in rat serum) (Q9JJS8 20-685 limits assumed): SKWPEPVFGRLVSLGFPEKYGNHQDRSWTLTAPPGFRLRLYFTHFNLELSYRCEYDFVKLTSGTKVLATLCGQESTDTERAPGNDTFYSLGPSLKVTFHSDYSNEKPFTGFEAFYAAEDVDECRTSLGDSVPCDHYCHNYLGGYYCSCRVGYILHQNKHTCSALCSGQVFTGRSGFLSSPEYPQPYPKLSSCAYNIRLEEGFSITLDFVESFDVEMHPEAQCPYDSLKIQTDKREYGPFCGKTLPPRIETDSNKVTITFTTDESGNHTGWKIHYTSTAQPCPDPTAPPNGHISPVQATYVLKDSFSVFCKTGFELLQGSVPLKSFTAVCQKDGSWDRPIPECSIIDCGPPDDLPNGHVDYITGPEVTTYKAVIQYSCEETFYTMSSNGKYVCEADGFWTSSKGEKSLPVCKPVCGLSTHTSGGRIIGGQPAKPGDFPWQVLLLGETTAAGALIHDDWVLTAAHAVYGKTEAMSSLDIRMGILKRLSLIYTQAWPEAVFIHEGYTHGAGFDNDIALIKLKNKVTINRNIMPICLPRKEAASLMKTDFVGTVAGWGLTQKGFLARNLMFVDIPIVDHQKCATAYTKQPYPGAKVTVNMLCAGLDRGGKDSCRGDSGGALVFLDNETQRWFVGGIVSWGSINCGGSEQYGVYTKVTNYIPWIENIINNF

B1: EVO2a (designed binder)
chain: KPDFCFLENDPGPCRAVKRRYFYNNQTKQCERFKYGGCLGNMNNFETLEECKNICEDG
modifications: not fully specified; cysteine pairing not given here
notes: Modified TFPI-D2 Kunitz domain; made as m1
In assay [1], B1 showed a Kd of 4.73 nM, a Relative affinity of 0.8 fold vs EVO2, a koff of 0.00151 s⁻¹ and a kon of 319000 M⁻¹ s⁻¹. In assay [2], this molecule returned a Kd of 2.95 nM, a Relative affinity of 0.6 fold vs EVO2, a koff of 0.0021 s⁻¹ and a kon of 711000 M⁻¹ s⁻¹. In addition, in assay [3], the “IC50, lectin pathway C4 deposition, human serum” value (shortened to “IC50 … human serum”) is 215 nM and the “Relative potency, lectin pathway, human serum” value (“Relative potency … human serum” below) was found to be 0.6 fold vs EVO2. Moreover, in assay [4], the “IC50, lectin pathway C4 deposition, rat serum” value (“IC50 … rat serum” below) turned out to be 213 nM and the “Relative potency, lectin pathway, rat serum” value (“Relative potency … rat serum” below) turned out to be 0.5 fold vs EVO2.

B2: EVO214a (designed binder)
chain: B1 chain with N9E, V17L, R19L, K34G, L39F, E46V
As to B2, in assay [5], the “Relative potency (relative human lectin pathway inhibitory efficiency compared to EVO2)” value was 15.2 fold relative to EVO2. In assay [3], the “IC50 … human serum” value was 10.2 nM and the “Relative potency … human serum” value is 13.6 fold vs EVO2. Further, in assay [4], the “IC50 … rat serum” value is 20.3 nM and the “Relative potency … rat serum” value is 5.2 fold vs EVO2.

B3: EVO22d (designed binder)
chain: B1 chain with N9E, V17A, K34Y, L39F, E46V
B3: the “Relative potency (relative human lectin pathway inhibitory efficiency compared to EVO2)” value in assay [5] was 24.6 fold relative to EVO2. Also, in assay [3], the “IC50 … human serum” value came out at 5.6 nM and the “Relative potency … human serum” value worked out at 24.7 fold vs EVO2. Moreover, in assay [4], the “IC50 … rat serum” value came to 10.4 nM and the “Relative potency … rat serum” value is 10.2 fold vs EVO2.

B4: EVO21b (designed binder)
chain: B1 chain with N9E, V17L, K34G, E46V
modifications: not fully specified; cysteine pairing not given here
Take B4: the “Relative potency (relative human lectin pathway inhibitory efficiency compared to EVO2)” value in assay [5] was 32.1 fold relative to EVO2. Also, in assay [3], the “IC50 … human serum” value was 4.3 nM and the “Relative potency … human serum” value is 31.9 fold vs EVO2. Moreover, in assay [4], the “IC50 … rat serum” value worked out at 7.2 nM and the “Relative potency … rat serum” value amounted to 14.7 fold vs EVO2.

B5: EVO21d (designed binder)
chain: B1 chain with N9E, V17L, K34S, L39F, E46V
modifications: not fully specified; cysteine pairing not given here
As for B5, in assay [3], the “IC50 … human serum” value was 8.3 nM and the “Relative potency … human serum” value was 16.6 fold vs EVO2. In assay [4], the “IC50 … rat serum” value is 25.9 nM and the “Relative potency … rat serum” value amounted to 4.1 fold vs EVO2.

B6: EVO23a (designed binder)
chain: B1 chain with N9E, V17L, K34Y, L39F, E46V
Regarding B6, in assay [5], the “Relative potency (relative human lectin pathway inhibitory efficiency compared to EVO2)” value is 43.1 fold relative to EVO2. In addition, in assay [3], the “IC50 … human serum” value was 3.2 nM and the “Relative potency … human serum” value stood at 43 fold vs EVO2. Besides, in assay [4], the “IC50 … rat serum” value is 14.1 nM and the “Relative potency … rat serum” value came out at 7.5 fold vs EVO2.

B7: EVO216 (designed binder)
chain: B1 chain with P13W, V17A, R19L, K34G, E46V
modifications: not fully specified; cysteine pairing not given here
notes: as for B1
In assay [2], B7 registered a Kd of 0.76 nM, a Relative affinity of 2.4 fold vs EVO2, a koff of 0.000732 s⁻¹ and a kon of 963000 M⁻¹ s⁻¹. For the same molecule, in assay [3], the “IC50 … human serum” value worked out at 30.9 nM and the “Relative potency … human serum” value is 4.5 fold vs EVO2.

B8: EVO2c (designed binder)
chain: B1 chain with N9E, K34Y
modifications: not fully specified; cysteine pairing not given here
notes: as for B1
In assay [1], B8 returned a Kd of 1.31 nM, a Relative affinity of 2.8 fold vs EVO2, a koff of 0.000978 s⁻¹ and a kon of 747000 M⁻¹ s⁻¹. In assay [2], this molecule yielded a Kd of 1.04 nM, a Relative affinity of 1.7 fold vs EVO2, a koff of 0.00161 s⁻¹ and a kon of 1.55e+06 M⁻¹ s⁻¹. In assay [3], the “IC50 … human serum” value was 22.3 nM and the “Relative potency … human serum” value is 6.2 fold vs EVO2. In addition, in assay [4], the “IC50 … rat serum” value stood at 34.3 nM and the “Relative potency … rat serum” value stood at 3.1 fold vs EVO2.

B9: EVO2b (designed binder)
chain: B1 chain with N9E, K34G
modifications: not fully specified; cysteine pairing not given here
notes: as for B1
For the molecule B9, in assay [1], binding was characterised by a dissociation constant (Kd) of 1.95 nM, the Relative affinity amounted to 1.9 fold vs EVO2, the off-rate (koff) turned out to be 0.000942 s⁻¹ and the on-rate (kon) was found to be 484000 M⁻¹ s⁻¹. In assay [2], this molecule had a Kd of 1.97 nM, a Relative affinity of 0.9 fold vs EVO2, a koff of 0.00156 s⁻¹ and a kon of 790000 M⁻¹ s⁻¹. Besides, in assay [3], the “IC50 … human serum” value worked out at 62.7 nM and the “Relative potency … human serum” value is 2.2 fold vs EVO2. Further, in assay [4], the “IC50 … rat serum” value is 34.3 nM and the “Relative potency … rat serum” value was determined as 3.1 fold vs EVO2.

B10: EVO22a (designed binder)
chain: B1 chain with V17A, K34Y, E46V
notes: as for B1
For B10, in assay [1], the affinity, expressed as Kd, was 0.192 nM; the Relative affinity was 18.9 fold vs EVO2; the koff stood at 0.000163 s⁻¹; the kon is 847000 M⁻¹ s⁻¹. In assay [2], this molecule displayed a Relative affinity of 40.1 fold vs EVO2, a koff of 9.09e-05 s⁻¹ and a kon of 2.04e+06 M⁻¹ s⁻¹. In addition, in assay [3], the “IC50 … human serum” value turned out to be 3.7 nM and the “Relative potency … human serum” value worked out at 37.1 fold vs EVO2. For the same molecule, in assay [4], the “IC50 … rat serum” value is 10.6 nM and the “Relative potency … rat serum” value turned out to be 10 fold vs EVO2.

B11: EVO212 (designed binder)
chain: B1 chain with P13L, V17L, K34G, E46V
modifications: not fully specified; ends and bridges not checked
notes: as for B1
In the case of B11, in assay [1], binding was characterised by a dissociation constant (Kd) of 1.26 nM, the Relative affinity is 2.9 fold vs EVO2, the koff came out at 0.000618 s⁻¹ and the kon was found to be 492000 M⁻¹ s⁻¹. In addition, in assay [2], binding was characterised by a dissociation constant (Kd) of 0.055 nM, the Relative affinity was 32.7 fold vs EVO2, the koff turned out to be 8.26e-05 s⁻¹ and the kon came out at 1.51e+06 M⁻¹ s⁻¹. For the same molecule, in assay [3], the “IC50 … human serum” value amounted to 6.2 nM and the “Relative potency … human serum” value was 22.1 fold vs EVO2. In assay [4], the “IC50 … rat serum” value turned out to be 46.3 nM and the “Relative potency … rat serum” value amounted to 2.3 fold vs EVO2.

B12: EVO22b (designed binder)
chain: B1 chain with V17L, K18A, K34Y, E46V
modifications: not fully specified; cysteine pairing not given here
notes: as for B1
In assay [1], B12 gave a Kd of 0.163 nM, a Relative affinity of 22.3 fold vs EVO2, a koff of 0.000159 s⁻¹ and a kon of 975000 M⁻¹ s⁻¹. Also, in assay [2], binding was characterised by a dissociation constant (Kd) of 0.21 nM, the Relative affinity was found to be 8.5 fold vs EVO2, the koff is 0.00026 s⁻¹ and the kon stood at 1.24e+06 M⁻¹ s⁻¹. Also, in assay [3], the “IC50 … human serum” value came to 13.7 nM and the “Relative potency … human serum” value worked out at 10 fold vs EVO2. Besides, in assay [4], the “IC50 … rat serum” value was determined as 9.7 nM and the “Relative potency … rat serum” value was 11 fold vs EVO2.

B13: EVO211 (designed binder)
chain: B1 chain with P13W, V17L, K34G, E46V
modifications: not fully specified; ends and bridges not checked
notes: as for B1
Regarding B13, in assay [1], the Kd came to 2.87 nM, the Relative affinity turned out to be 1.3 fold vs EVO2, the koff was found to be 0.0027 s⁻¹ and the kon amounted to 942000 M⁻¹ s⁻¹. Moreover, in assay [2], the Kd was determined as 0.043 nM, the Relative affinity worked out at 41.6 fold vs EVO2, the koff is 6.62e-05 s⁻¹ and the kon worked out at 1.54e+06 M⁻¹ s⁻¹. Also, in assay [3], the “IC50 … human serum” value was 3.1 nM and the “Relative potency … human serum” value amounted to 44 fold vs EVO2. In addition, in assay [4], the “IC50 … rat serum” value is 53.2 nM and the “Relative potency … rat serum” value came out at 2 fold vs EVO2.

B14: EVO2d (designed binder)
chain: B1 chain with N9E, V17L
modifications: not fully specified; cysteine pairing not given here
notes: as for B1
In assay [1], B14 returned a Kd of 1.08 nM, a Relative affinity of 3.4 fold vs EVO2, a koff of 0.000438 s⁻¹ and a kon of 405000 M⁻¹ s⁻¹. In assay [2], this molecule came in with a Kd of 1.19 nM, a Relative affinity of 1.5 fold vs EVO2, a koff of 0.00108 s⁻¹ and a kon of 909000 M⁻¹ s⁻¹. Further, in assay [3], the “IC50 … human serum” value is 60.3 nM and the “Relative potency … human serum” value is 2.3 fold vs EVO2. In assay [4], the “IC50 … rat serum” value was determined as 70.9 nM and the “Relative potency … rat serum” value is 1.5 fold vs EVO2.

B15: EVO213 (designed binder)
chain: B1 chain with V17A, K34G, E46V
notes: as for B1
In assay [1], B15 displayed a dissociation constant (Kd) of 3.81 nM, a Relative affinity of 1 fold vs EVO2, a koff of 0.00147 s⁻¹ and a kon of 386000 M⁻¹ s⁻¹. In assay [2], this molecule yielded a Kd of 0.542 nM, a Relative affinity of 3.3 fold vs EVO2, a koff of 0.000524 s⁻¹ and a kon of 967000 M⁻¹ s⁻¹. Besides, in assay [3], the “IC50 … human serum” value amounted to 28.3 nM and the “Relative potency … human serum” value amounted to 4.9 fold vs EVO2. Also, in assay [4], the “IC50 … rat serum” value worked out at 88.7 nM and the “Relative potency … rat serum” value is 1.2 fold vs EVO2.

B16: EVO215 (designed binder)
chain: B1 chain with P13W, V17A, K34G, E46V
modifications: not fully specified; ends and bridges not checked
notes: as for B1
In assay [2], B16 registered a dissociation constant Kd of 0.304 nM, a Relative affinity of 5.9 fold vs EVO2, a koff of 0.000559 s⁻¹ and a kon of 1.84e+06 M⁻¹ s⁻¹. In addition, in assay [3], the “IC50 … human serum” value turned out to be 22.7 nM and the “Relative potency … human serum” value is 6.1 fold vs EVO2.

These data come from US20260098080A1, “A MODIFIED PROTEIN SCAFFOLD AND USE THEREOF” (EVOLVERITAS BIOTECHNOLÓGIAI KORLÁTOLT FELELOSSÉGU TÁRSASÁG, priority 2022, published 2026).
